Assay results published in patent publication US20210388110A1.

B1: TR01H040-E2702GsKsc/H0610-E2704sEpsc/L0206-k0 (bispecific antibody, human IgG4 S228P, kappa, N297A)
heavy 1: QVQLVESGGGLVQPGRSLRLSCAASGFTFSNAWMHWVRQAPGKGLEWVAQIKDKSQNYATYYAESVKGRFTISRADSKNSIYLQMNSLKTEDTAVYYCRYVHYSASYGVDAWGQGTTVTVSSASTKGPSVFPLAPCSRSTSESTAALGCLVKDYFPEPVTVSWNSGALTSGVHTFPAVLQSSGLYSLSSVVTVPSSSLGTKTYTCNVDHKPSNTKVDKRVESKYGPPCPPCPAPEFRGGPKVFLFPPKPKDTLMISRTPEVTCVVVDVSQEDPEVQFNWYVDGVEVHNAKTKPREEQFASTYRVVSVLTVLHQDWLNGKEYKCKVSNKGLPSSIEKTISKAKGQPREPQVYTLPPSQKEMTKNQVSLTCLVKGFYPSDIAVEWESNGQPENNYKTTPPVLDSDGSFFLYSKLTVDKSRWQEGNVFSCSVMHEALHNRYTQKSLSLSP
heavy 2: QVQLVQSGAEVKKPGASVKVSCKASGYTFTDYEMHWIRQPPGQGLEWIGAIDGKTPDTAYSQKFKGRVTLTADKSTSTAYMELSSLTSEDTAVYYCTRFYSYTYWGQGTLVTVSSASTKGPSVFPLAPCSRSTSESTAALGCLVKDYFPEPVTVSWNSGALTSGVHTFPAVLQSSGLYSLSSVVTVPSSSLGTQTYTCNVDHKPSNTKVDKRVESKYGPPCPPCPAPEFRGGPKVFLFPPKPKDTLMISRTPEVTCVVVDVSQEDPEVQFNWYVDGVEVHNAKTKPREEQFASTYRVVSVLTVLHQDWLNGKEYKCKVSNKGLPSSIEKTISKAKGQPREPQVYTLPPSQEEMTKNQVSLTCLVKGFYPSDIAVEWESNGQPENNYKTTPPVLDSDGSFFLYSKLTVDKSRWQEGNVFSCSVMHEALHNHYTQESLSLSP
light: DIVMTQSPLSLPVTPGEPASISCRSSQSPVHSNRNTYLHWYQQKPGQAPRLLIYKVSNRFSGVPDRFSGSGSGTDFTLKISRVEAEDVGVYYCYQGTQVPYTFGQGTKLEIKRTVAAPSVFIFPPSDEQLKSGTASVVCLLNNFYPREAKVQWKVDNALQSGNSQESVTEQDSKDSTYSLSSTLTLSKADYEKHKVYACEVTHQGLSSPVTKSFNRGEC
B2: TR01H040-E2702GsKsc/H0610-E2704sEpsc/L0204-k0 (bispecific antibody, human IgG4 S228P, kappa, N297A)
heavy 1: QVQLVESGGGLVQPGRSLRLSCAASGFTFSNAWMHWVRQAPGKGLEWVAQIKDKSQNYATYYAESVKGRFTISRADSKNSIYLQMNSLKTEDTAVYYCRYVHYSASYGVDAWGQGTTVTVSSASTKGPSVFPLAPCSRSTSESTAALGCLVKDYFPEPVTVSWNSGALTSGVHTFPAVLQSSGLYSLSSVVTVPSSSLGTKTYTCNVDHKPSNTKVDKRVESKYGPPCPPCPAPEFRGGPKVFLFPPKPKDTLMISRTPEVTCVVVDVSQEDPEVQFNWYVDGVEVHNAKTKPREEQFASTYRVVSVLTVLHQDWLNGKEYKCKVSNKGLPSSIEKTISKAKGQPREPQVYTLPPSQKEMTKNQVSLTCLVKGFYPSDIAVEWESNGQPENNYKTTPPVLDSDGSFFLYSKLTVDKSRWQEGNVFSCSVMHEALHNRYTQKSLSLSP
heavy 2: QVQLVQSGAEVKKPGASVKVSCKASGYTFTDYEMHWIRQPPGQGLEWIGAIDGKTPDTAYSQKFKGRVTLTADKSTSTAYMELSSLTSEDTAVYYCTRFYSYTYWGQGTLVTVSSASTKGPSVFPLAPCSRSTSESTAALGCLVKDYFPEPVTVSWNSGALTSGVHTFPAVLQSSGLYSLSSVVTVPSSSLGTQTYTCNVDHKPSNTKVDKRVESKYGPPCPPCPAPEFRGGPKVFLFPPKPKDTLMISRTPEVTCVVVDVSQEDPEVQFNWYVDGVEVHNAKTKPREEQFASTYRVVSVLTVLHQDWLNGKEYKCKVSNKGLPSSIEKTISKAKGQPREPQVYTLPPSQEEMTKNQVSLTCLVKGFYPSDIAVEWESNGQPENNYKTTPPVLDSDGSFFLYSKLTVDKSRWQEGNVFSCSVMHEALHNHYTQESLSLSP
light: DIVMTQSPLSLPVTPGEPASISCRSSQSPVHSNRNTYLHWYQQKPGQAPRLLIYKVSNRFRGVPDRFSGSGSGTDFTLKISRVEAEDVGVYYCGQGTQVPYTFGQGTKLEIKRTVAAPSVFIFPPSDEQLKSGTASVVCLLNNFYPREAKVQWKVDNALQSGNSQESVTEQDSKDSTYSLSSTLTLSKADYEKHKVYACEVTHQGLSSPVTKSFNRGEC
B3: TR01H040-E2702GsKsc/H0610-E2704sEpsc/L0209-k0 (bispecific antibody, human IgG4 S228P, kappa, N297A)
heavy 1: QVQLVESGGGLVQPGRSLRLSCAASGFTFSNAWMHWVRQAPGKGLEWVAQIKDKSQNYATYYAESVKGRFTISRADSKNSIYLQMNSLKTEDTAVYYCRYVHYSASYGVDAWGQGTTVTVSSASTKGPSVFPLAPCSRSTSESTAALGCLVKDYFPEPVTVSWNSGALTSGVHTFPAVLQSSGLYSLSSVVTVPSSSLGTKTYTCNVDHKPSNTKVDKRVESKYGPPCPPCPAPEFRGGPKVFLFPPKPKDTLMISRTPEVTCVVVDVSQEDPEVQFNWYVDGVEVHNAKTKPREEQFASTYRVVSVLTVLHQDWLNGKEYKCKVSNKGLPSSIEKTISKAKGQPREPQVYTLPPSQKEMTKNQVSLTCLVKGFYPSDIAVEWESNGQPENNYKTTPPVLDSDGSFFLYSKLTVDKSRWQEGNVFSCSVMHEALHNRYTQKSLSLSP
heavy 2: QVQLVQSGAEVKKPGASVKVSCKASGYTFTDYEMHWIRQPPGQGLEWIGAIDGKTPDTAYSQKFKGRVTLTADKSTSTAYMELSSLTSEDTAVYYCTRFYSYTYWGQGTLVTVSSASTKGPSVFPLAPCSRSTSESTAALGCLVKDYFPEPVTVSWNSGALTSGVHTFPAVLQSSGLYSLSSVVTVPSSSLGTQTYTCNVDHKPSNTKVDKRVESKYGPPCPPCPAPEFRGGPKVFLFPPKPKDTLMISRTPEVTCVVVDVSQEDPEVQFNWYVDGVEVHNAKTKPREEQFASTYRVVSVLTVLHQDWLNGKEYKCKVSNKGLPSSIEKTISKAKGQPREPQVYTLPPSQEEMTKNQVSLTCLVKGFYPSDIAVEWESNGQPENNYKTTPPVLDSDGSFFLYSKLTVDKSRWQEGNVFSCSVMHEALHNHYTQESLSLSP
light: DIVMTQSPLSLPVTPGEPASISCRSSQSPVHSNRNTYIHWYQQKPGQAPRLLIYKVSNRFSGVPDRFSGSGSGTDFTLKISRVEAEDVGVYYCYQGTQVPYTFGQGTKLEIKRTVAAPSVFIFPPSDEQLKSGTASVVCLLNNFYPREAKVQWKVDNALQSGNSQESVTEQDSKDSTYSLSSTLTLSKADYEKHKVYACEVTHQGLSSPVTKSFNRGEC
B4: TR01H067-E2702GsKsc/GCH054-E2704sEpsc/L0212-k0 (bispecific antibody, human IgG4 S228P, kappa, N297A)
heavy 1: QVQLVESGGGLVQPGRSLRLSCAASGFTFSNAWMHWVRQAPGKGLEWVAQIKDKSQNYATYYAESVKGRFTISRDDSKNSLYLQMNSLKTEDTAVYYCRYVHYAASYGVDAWGQGTTVTVSSASTKGPSVFPLAPCSRSTSESTAALGCLVKDYFPEPVTVSWNSGALTSGVHTFPAVLQSSGLYSLSSVVTVPSSSLGTKTYTCNVDHKPSNTKVDKRVESKYGPPCPPCPAPEFRGGPKVFLFPPKPKDTLMISRTPEVTCVVVDVSQEDPEVQFNWYVDGVEVHNAKTKPREEQFASTYRVVSVLTVLHQDWLNGKEYKCKVSNKGLPSSIEKTISKAKGQPREPQVYTLPPSQKEMTKNQVSLTCLVKGFYPSDIAVEWESNGQPENNYKTTPPVLDSDGSFFLYSKLTVDKSRWQEGNVFSCSVMHEALHNRYTQKSLSLSP
heavy 2: QVQLVQSGAEVKKPGASVTVSCKASGYTFTDYEMHWIRQPPGEGLEWIGAIDGETPDTAYSEKFKGRVTLTADKSTSTAYMELSSLTSEDTAVYYCTRFYSYTYWGQGTLVTVSSASTKGPSVFPLAPCSRSTSESTAALGCLVKDYFPEPVTVSWNSGALTSGVHTFPAVLQSSGLYSLSSVVTVPSSSLGTQTYTCNVDHKPSNTKVDKRVESKYGPPCPPCPAPEFRGGPKVFLFPPKPKDTLMISRTPEVTCVVVDVSQEDPEVQFNWYVDGVEVHNAKTKPREEQFASTYRVVSVLTVLHQDWLNGKEYKCKVSNKGLPSSIEKTISKAKGQPREPQVYTLPPSQEEMTKNQVSLTCLVKGFYPSDIAVEWESNGQPENNYKTTPPVLDSDGSFFLYSKLTVDKSRWQEGNVFSCSVMHEALHNHYTQESLSLSP
light: DIVMTQSPLSLPVTPGEPASISCRPSQSPVHSNRNTYLHWYQQKPGQAPRLLIYKVSNRFSGVPDRFSGSGSGTDFTLKISRVEAEDVGVYYCYQGTQVPYTFGQGTKLEIKRTVAAPSVFIFPPSDEQLKSGTASVVCLLNNFYPREAKVQWKVDNALQSGNSQESVTEQDSKDSTYSLSSTLTLSKADYEKHKVYACEVTHQGLSSPVTKSFNRGEC

Biological target: extracellular matrix (BD Matrigel)
Assay: ECL on Matrigel-coated plate, relative to MRAH-G1d/MRAL-k0

Row | Binder | ECM binding ratio (standard = 1)
1 | B1 | 15.4
2 | B2 | 4.4
3 | B3 | 7.4
4 | B4 | 3.3
